Test results reported in the supplement of paper PMC7877785.
± gives the uncertainty stated by the source.

Test: self-splicing fitness, log relative to wild type (ln ratio); higher = more splicing; Tetrahymena group I intron in knt gene, E. coli kanamycin selection, DiMSum; sequences stand for … in CUCUCU…GGAGGGAAAAGUUAUCAGGCAUGCACCUGGUAGCUAGUCUUUAAACCAAUAGAUUGCAUCGGUUUAAAAGGCAAGACCGUCAAAUUGCGGGAAAGGGGUCAACAGCCGUUCAGUACCAAGUCUCAGGGGAAACUUUGAGAUGGCCUUGCAAAGGGUAUGGUAAUAAGCUGACGGACAUGGUCCUAACCACGCAGCCAAGUCCUAAGUCAACAGAUCUUCUGUUGAUAUGGAUGCAGUUCACAGACUAAAUGUCGGUCGGGGAAGAUGUAUUCUUCUCAUAAGAUAUAGUCGGACCUCUCCUUAAUGGGAGCUAGCGGAUGAAGUGAUGCAACACUGGAGCCGCUGGGAACUAAUUUGUAUGCGAAAGUAUAUUGAUUAGUUUUGGAGUACUCGUGGUCG
Procedure, shortened: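 Pooled colonies went to amplicon sequencing on an Illumina HiSeq 2500 after six replicate transformations. The plates were LB agar with 100 μg/mL carbenicillin, 50 μM IPTG and 0.2% rhamnose, with or without 25 μg/mL kanamycin, incubated overnight at 37°C or 30°C. The E. coli BL21(DE3) library had all eight P1ex-region intron nucleotides randomised, the intron placed in the knt kanamycin-resistance gene on pET-22b(+). DiMSum fitness is the error-weighted combination of replicate fold changes, kanamycin against none, normalised to wild type.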

## CCAUAGCAAUAUUACGCACA
30 °C
  self-splicing fitness (ln): -3.14 ± 0.28
37 °C
  self-splicing fitness (ln): -1.45 ± 0.27

## CCAUAGCAAUAUUACGCGGG
30 °C
  self-splicing fitness (ln): -3.99 ± 0.21
37 °C
  self-splicing fitness (ln): -2.87 ± 0.24

## CCAUAGCAAUAUUACGCUAU
37 °C
  self-splicing fitness (ln): -3.35 ± 0.37

## CCAUAGCAAUAUUACGGAAC
30 °C
  self-splicing fitness (ln): -3.26 ± 0.24
37 °C
  self-splicing fitness (ln): -1.55 ± 0.27

## CCAUAGCAAUAUUACGGACG
30 °C
  self-splicing fitness (ln): -1.47 ± 0.11
37 °C
  self-splicing fitness (ln): -1.21 ± 0.14

## CCAUAGCAAUAUUACGGAUU
30 °C
  self-splicing fitness (ln): -3.49 ± 0.19
37 °C
  self-splicing fitness (ln): -2.96 ± 0.24

## CCAUAGCAAUAUUACGGCCA
30 °C
  self-splicing fitness (ln): -3.07 ± 0.37
37 °C
  self-splicing fitness (ln): -3.3 ± 0.42

## CCAUAGCAAUAUUACGGGCG
30 °C
  self-splicing fitness (ln): -1.02 ± 0.097
37 °C
  self-splicing fitness (ln): -0.644 ± 0.11

## CCAUAGCAAUAUUACGUAAG
30 °C
  self-splicing fitness (ln): -0.421 ± 0.055
37 °C
  self-splicing fitness (ln): -0.575 ± 0.07

## CCAUAGCAAUAUUACGUCAU
30 °C
  self-splicing fitness (ln): -4.08 ± 0.31
37 °C
  self-splicing fitness (ln): -2.69 ± 0.17

## CCAUAGCAAUAUUACGUGAU
30 °C
  self-splicing fitness (ln): -2.78 ± 0.097
37 °C
  self-splicing fitness (ln): -2.76 ± 0.16

## CCAUAGCAAUAUUACGUGUA
30 °C
  self-splicing fitness (ln): -4.27 ± 0.25
37 °C
  self-splicing fitness (ln): -2.71 ± 0.22

## CCAUAGCAAUAUUACGUUAA
30 °C
  self-splicing fitness (ln): -3.44 ± 0.34
37 °C
  self-splicing fitness (ln): -3.04 ± 0.38

## CCAUAGCAAUAUUACGUUUU
30 °C
  self-splicing fitness (ln): -3.58 ± 0.16
37 °C
  self-splicing fitness (ln): -2.75 ± 0.17

## CCCAAGCAAUAUUACGAAAC
30 °C
  self-splicing fitness (ln): -2.72 ± 0.22
37 °C
  self-splicing fitness (ln): -2.04 ± 0.27

## CCCAAGCAAUAUUACGACAU
30 °C
  self-splicing fitness (ln): -3.83 ± 0.021
37 °C
  self-splicing fitness (ln): -2.8 ± 0.037

## CCCAAGCAAUAUUACGAGCG
30 °C
  self-splicing fitness (ln): -2.62 ± 0.12
37 °C
  self-splicing fitness (ln): -2 ± 0.13

## CCCAAGCAAUAUUACGAUGC
30 °C
  self-splicing fitness (ln): -4.67 ± 0.29
37 °C
  self-splicing fitness (ln): -2.15 ± 0.24

## CCCAAGCAAUAUUACGCAAC
30 °C
  self-splicing fitness (ln): -3.16 ± 0.26
37 °C
  self-splicing fitness (ln): -2.71 ± 0.38

## CCCAAGCAAUAUUACGCAAG
30 °C
  self-splicing fitness (ln): -3.34 ± 0.19
37 °C
  self-splicing fitness (ln): -2.86 ± 0.22

## CCCAAGCAAUAUUACGCACG
30 °C
  self-splicing fitness (ln): -2.65 ± 0.17
37 °C
  self-splicing fitness (ln): -2.84 ± 0.43

## CCCAAGCAAUAUUACGCCCA
30 °C
  self-splicing fitness (ln): -2.33 ± 0.24
37 °C
  self-splicing fitness (ln): -2.46 ± 0.25

## CCCAAGCAAUAUUACGCCGA
30 °C
  self-splicing fitness (ln): -2.01 ± 0.32

## CCCAAGCAAUAUUACGGAAA
30 °C
  self-splicing fitness (ln): -2.22 ± 0.15
37 °C
  self-splicing fitness (ln): -3.47 ± 0.3

## CCCAAGCAAUAUUACGGAGU
30 °C
  self-splicing fitness (ln): -3.37 ± 0.11
37 °C
  self-splicing fitness (ln): -2.47 ± 0.11

## CCCAAGCAAUAUUACGGAUG
30 °C
  self-splicing fitness (ln): -3.07 ± 0.1
37 °C
  self-splicing fitness (ln): -2.49 ± 0.11

## CCCAAGCAAUAUUACGGCAA
30 °C
  self-splicing fitness (ln): -2.32 ± 0.14
37 °C
  self-splicing fitness (ln): -2.69 ± 0.16

## CCCAAGCAAUAUUACGGCGG
30 °C
  self-splicing fitness (ln): -3.72 ± 0.23
37 °C
  self-splicing fitness (ln): -2.08 ± 0.21

## CCCAAGCAAUAUUACGGGAC
30 °C
  self-splicing fitness (ln): -4.01 ± 0.18
37 °C
  self-splicing fitness (ln): -2.67 ± 0.15

## CCCAAGCAAUAUUACGGGAG
30 °C
  self-splicing fitness (ln): -3.79 ± 0.13
37 °C
  self-splicing fitness (ln): -2.29 ± 0.13

## CCCAAGCAAUAUUACGGGCG
30 °C
  self-splicing fitness (ln): -3.29 ± 0.17
37 °C
  self-splicing fitness (ln): -1.79 ± 0.15

## CCCAAGCAAUAUUACGGGGA
30 °C
  self-splicing fitness (ln): -2.82 ± 0.13
37 °C
  self-splicing fitness (ln): -1.62 ± 0.09

## CCCAAGCAAUAUUACGGGGU
30 °C
  self-splicing fitness (ln): -3.46 ± 0.12
37 °C
  self-splicing fitness (ln): -2.35 ± 0.16

## CCCAAGCAAUAUUACGGUAC
30 °C
  self-splicing fitness (ln): -4.14 ± 0.23
37 °C
  self-splicing fitness (ln): -2.71 ± 0.17

## CCCAAGCAAUAUUACGGUUC
30 °C
  self-splicing fitness (ln): -3.38 ± 0.13
37 °C
  self-splicing fitness (ln): -2.6 ± 0.18

## CCCAAGCAAUAUUACGUCAC
30 °C
  self-splicing fitness (ln): -3.87 ± 0.2
37 °C
  self-splicing fitness (ln): -2.82 ± 0.15

## CCCAAGCAAUAUUACGUCCC
30 °C
  self-splicing fitness (ln): -3.35 ± 0.43

## CCCAAGCAAUAUUACGUCUG
30 °C
  self-splicing fitness (ln): -3.87 ± 0.19
37 °C
  self-splicing fitness (ln): -2.18 ± 0.21

## CCCAAGCAAUAUUACGUGGA
30 °C
  self-splicing fitness (ln): -0.971 ± 0.052
37 °C
  self-splicing fitness (ln): -0.376 ± 0.061

## CCCAAGCAAUAUUACGUGUA
30 °C
  self-splicing fitness (ln): -2.85 ± 0.096
37 °C
  self-splicing fitness (ln): -2.3 ± 0.11

## CCCAAGCAAUAUUACGUUCC
30 °C
  self-splicing fitness (ln): -3.87 ± 0.37
37 °C
  self-splicing fitness (ln): -2.3 ± 0.37

## CCCCAGCAAUAUUACGACAG
30 °C
  self-splicing fitness (ln): -3.96 ± 0.12
37 °C
  self-splicing fitness (ln): -2.92 ± 0.14

## CCCCAGCAAUAUUACGACAU
30 °C
  self-splicing fitness (ln): -3.936 ± 0.02
37 °C
  self-splicing fitness (ln): -2.94 ± 0.037

## CCCCAGCAAUAUUACGACCC
30 °C
  self-splicing fitness (ln): -0.862 ± 0.32

## CCCCAGCAAUAUUACGACUC
30 °C
  self-splicing fitness (ln): -2.97 ± 0.12
37 °C
  self-splicing fitness (ln): -2.11 ± 0.21

## CCCCAGCAAUAUUACGAGUG
30 °C
  self-splicing fitness (ln): -3.21 ± 0.12
37 °C
  self-splicing fitness (ln): -2.92 ± 0.14

## CCCCAGCAAUAUUACGAGUU
30 °C
  self-splicing fitness (ln): -4.17 ± 0.18
37 °C
  self-splicing fitness (ln): -2.31 ± 0.17

## CCCCAGCAAUAUUACGAUUC
30 °C
  self-splicing fitness (ln): -3.81 ± 0.2
37 °C
  self-splicing fitness (ln): -2.46 ± 0.23

## CCCCAGCAAUAUUACGCCUU
30 °C
  self-splicing fitness (ln): -3 ± 0.22
37 °C
  self-splicing fitness (ln): -2.4 ± 0.37
